Test results as given in patent US20090186811A1, “Y2 Selective Receptor Agonists for Therapeutic Interventions” (priority 2004, published 2009).
Non-standard residues stand in square brackets, D forms with d. Primed or numbered codes have the meaning given here. No end group written: not given here. Aoc′ = not defined here

Experiments:
[1] = molecular target: T1, human Y2 receptor (human), P49146; assay: competition binding, 125I-PYY displaced, COS-7 cells with human Y2
T1 chain: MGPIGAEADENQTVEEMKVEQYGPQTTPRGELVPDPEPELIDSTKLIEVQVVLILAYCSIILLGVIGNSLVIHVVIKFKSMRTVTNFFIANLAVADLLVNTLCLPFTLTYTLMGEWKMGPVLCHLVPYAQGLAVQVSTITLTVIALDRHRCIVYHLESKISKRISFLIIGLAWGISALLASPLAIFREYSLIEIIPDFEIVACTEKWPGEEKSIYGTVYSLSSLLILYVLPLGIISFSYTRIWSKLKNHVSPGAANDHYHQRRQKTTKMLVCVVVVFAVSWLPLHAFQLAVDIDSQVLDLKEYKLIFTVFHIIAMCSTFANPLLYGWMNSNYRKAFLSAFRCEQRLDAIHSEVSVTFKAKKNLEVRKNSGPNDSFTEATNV

[2] = molecular target: human Y4 receptor (human), P50391; assay: competition binding, 125I-PP displaced, COS-7 cells with human Y4
[3] = molecular target: T2, human Y5 receptor (human), Q15761; assay: cell-based or functional assay
T2 chain: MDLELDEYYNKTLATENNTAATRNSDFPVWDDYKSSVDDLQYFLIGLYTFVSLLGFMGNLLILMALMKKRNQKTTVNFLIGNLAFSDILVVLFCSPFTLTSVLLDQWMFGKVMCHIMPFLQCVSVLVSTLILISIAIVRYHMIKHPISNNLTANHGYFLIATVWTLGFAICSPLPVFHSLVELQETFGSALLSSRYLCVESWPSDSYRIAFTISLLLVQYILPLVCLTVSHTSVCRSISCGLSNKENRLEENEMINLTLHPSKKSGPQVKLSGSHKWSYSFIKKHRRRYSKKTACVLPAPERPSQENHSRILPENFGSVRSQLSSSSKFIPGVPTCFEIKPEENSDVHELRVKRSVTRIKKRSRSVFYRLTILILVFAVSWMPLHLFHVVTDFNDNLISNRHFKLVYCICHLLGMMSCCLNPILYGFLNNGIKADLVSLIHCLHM

[4] = molecular target: T1, human Y2 receptor (human), P49146; assay: cell-based or functional assay
[5] = molecular target: T3, human Y1 receptor (human), P25929; assay: cell-based or functional assay
T3 chain: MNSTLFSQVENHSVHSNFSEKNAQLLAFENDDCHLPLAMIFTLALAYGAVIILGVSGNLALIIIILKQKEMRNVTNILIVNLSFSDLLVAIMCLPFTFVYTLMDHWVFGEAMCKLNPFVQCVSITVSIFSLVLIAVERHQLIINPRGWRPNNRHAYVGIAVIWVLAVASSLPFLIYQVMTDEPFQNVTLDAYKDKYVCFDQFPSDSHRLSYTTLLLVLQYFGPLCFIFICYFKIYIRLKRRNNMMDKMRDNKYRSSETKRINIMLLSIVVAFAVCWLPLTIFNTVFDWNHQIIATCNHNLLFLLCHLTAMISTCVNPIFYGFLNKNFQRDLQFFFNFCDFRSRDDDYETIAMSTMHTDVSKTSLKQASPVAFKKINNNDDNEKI

[6] = molecular target: human Y4 receptor (human), P50391; assay: cell-based or functional assay

human Y4 receptor (human), P50391, sequence (P50391 whole entry): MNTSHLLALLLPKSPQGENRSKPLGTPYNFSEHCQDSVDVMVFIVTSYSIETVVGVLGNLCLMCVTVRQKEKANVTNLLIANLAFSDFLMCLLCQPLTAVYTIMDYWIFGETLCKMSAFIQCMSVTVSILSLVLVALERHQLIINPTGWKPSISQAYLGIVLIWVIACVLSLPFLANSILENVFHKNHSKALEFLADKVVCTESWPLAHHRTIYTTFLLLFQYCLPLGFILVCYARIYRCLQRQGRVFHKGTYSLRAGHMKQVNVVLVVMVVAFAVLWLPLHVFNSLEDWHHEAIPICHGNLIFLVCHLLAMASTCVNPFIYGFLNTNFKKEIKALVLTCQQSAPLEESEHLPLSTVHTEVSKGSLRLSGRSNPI

- IC50 [1]: 0.87 nM
- IC50 [2]: 267 nM
- EC50 (inositol phosphate turnover) [3]: > 1000 nM
- EC50 (inositol phosphate turnover) [4]: 3.7 nM
- EC50 (inositol phosphate turnover) [5]: > 1000 nM
- EC50 (inositol phosphate turnover) [6]: > 1000 nM
Binder: YCIK[Aoc′]RH[dC]LNLVTRQRY (cysteine pairing not given here; reading uncertain) [[Cys2, Aoc5-24, D-Cys27]PYY]
